# Data taken from patent publication US7396816B2, “Low-molecular weight peptides inhibiting ion channel activity” (Pharmadesign, Inc., priority 2003, dated 2008).
# Where no end group is shown, it is not given here.
# Key:
# [1] = target: T1, Ca^2+ dependant BigK channel derived from heart muscle (myocardial SA channel) (Gallus gallus, UniProt Q8AYS8); assay: single channel current recording by patch clamp (inside-out excised patch, back-fill); assay type: cell-based, chicken; settings: for inhibition of wild-type SA channel: wild-type myocardial SA channel, FIG. 13; for inhibiting activity: primary screening, channel's open probability (Po); for level of inhibiting activity compared with GsMTx-4: suggested from time taken for inhibition
# T1 construct: expressed in transfected cells; host or cells: CHO cells force-expressing the channel cDNA, or the endogenous channel of chicken ventricular muscle
# Description: Activity assay of the peptides was carried out by the most reliable single channel current recording method using the patch clamp method. As the subject of the assay, Ca^2+ dependant BigK channel (Kawakubo et. Am J Physiol, 276: H1827.1999) derived from heart muscle was employed. By applying this channel to the expressed ventricle muscle of chicken or to CHO cells force-expressing the cDNA of this channel with the cell-attached patch clamp method, an inside-out excised patch was formed, and single channel current recordings were taken under a fixed membrane potential. Assuming that the designed synthetic peptide blocks the channel extracellularly the same as GsMTx-4, the space a fixed distance above the glass pipette used for recording was filled with the peptide of a known concentration beforehand, and administration was carried out by back-fill which utilizes diffusion to reach the channel, With this method, the concentration of the peptide inside the pipette reaches equilibrium 15 to 20 minutes after the start of diffusion, and so the dissociation constant of the peptide can be estimated from the inhibition ratio at 20 minutes and onwards. Or, the relative inhibition of the peptide can be estimated from the time taken for inhibition. If the exact dissociation constant of the peptide is to be calculated, it is necessary to prepare an outside-out excised patch, take single channel current recordings, analyze the inhibition effects of various peptides with different concentration, and obtain a dose-inhibition curve; however, as this method requires special technology and as this is the primary screening of the various designed synthetic peptides, the assay method combining the inside-out excised patch and back-fill described above was used to make a rough estimate of the inhibition effects of the peptides. […] Concerning the scale of evaluation, the channel's open probability (Po, indicated in percentage) was used, and the level of inhibition was expressed by the inhibition ratio (percentage) with the control (prior to the administration of the peptide) as the standard, or by the time taken for inhibition.
# STREX-deletion-mutant = target: T2, STREX-deletion-mutant (Gallus gallus, UniProt Q8AYS8, DEL657-715); assay: single channel current recording, specificity to mechano-sensitive channel; assay type: cell-based; settings: mutant lacking the 59 amino acid STREX sequence, FIG. 13
# T2 construct: expressed in transfected cells; host or cells: CHO cells (inferred: a deletion mutant must be expressed heterologously, and CHO is the only expression host named for this channel)
# Description: Activity assay of the peptides was carried out by the most reliable single channel current recording method using the patch clamp method. As the subject of the assay, Ca^2+ dependant BigK channel (Kawakubo et. Am J Physiol, 276: H1827.1999) derived from heart muscle was employed. By applying this channel to the expressed ventricle muscle of chicken or to CHO cells force-expressing the cDNA of this channel with the cell-attached patch clamp method, an inside-out excised patch was formed, and single channel current recordings were taken under a fixed membrane potential. […] If the exact dissociation constant of the peptide is to be calculated, it is necessary to prepare an outside-out excised patch, take single channel current recordings, analyze the inhibition effects of various peptides with different concentration, and obtain a dose-inhibition curve; however, as this method requires special technology and as this is the primary screening of the various designed synthetic peptides, the assay method combining the inside-out excised patch and back-fill described above was used to make a rough estimate of the inhibition effects of the peptides. […]
# T1 sequence (Q8AYS8 1-1195 isoform Q8AYS8-3): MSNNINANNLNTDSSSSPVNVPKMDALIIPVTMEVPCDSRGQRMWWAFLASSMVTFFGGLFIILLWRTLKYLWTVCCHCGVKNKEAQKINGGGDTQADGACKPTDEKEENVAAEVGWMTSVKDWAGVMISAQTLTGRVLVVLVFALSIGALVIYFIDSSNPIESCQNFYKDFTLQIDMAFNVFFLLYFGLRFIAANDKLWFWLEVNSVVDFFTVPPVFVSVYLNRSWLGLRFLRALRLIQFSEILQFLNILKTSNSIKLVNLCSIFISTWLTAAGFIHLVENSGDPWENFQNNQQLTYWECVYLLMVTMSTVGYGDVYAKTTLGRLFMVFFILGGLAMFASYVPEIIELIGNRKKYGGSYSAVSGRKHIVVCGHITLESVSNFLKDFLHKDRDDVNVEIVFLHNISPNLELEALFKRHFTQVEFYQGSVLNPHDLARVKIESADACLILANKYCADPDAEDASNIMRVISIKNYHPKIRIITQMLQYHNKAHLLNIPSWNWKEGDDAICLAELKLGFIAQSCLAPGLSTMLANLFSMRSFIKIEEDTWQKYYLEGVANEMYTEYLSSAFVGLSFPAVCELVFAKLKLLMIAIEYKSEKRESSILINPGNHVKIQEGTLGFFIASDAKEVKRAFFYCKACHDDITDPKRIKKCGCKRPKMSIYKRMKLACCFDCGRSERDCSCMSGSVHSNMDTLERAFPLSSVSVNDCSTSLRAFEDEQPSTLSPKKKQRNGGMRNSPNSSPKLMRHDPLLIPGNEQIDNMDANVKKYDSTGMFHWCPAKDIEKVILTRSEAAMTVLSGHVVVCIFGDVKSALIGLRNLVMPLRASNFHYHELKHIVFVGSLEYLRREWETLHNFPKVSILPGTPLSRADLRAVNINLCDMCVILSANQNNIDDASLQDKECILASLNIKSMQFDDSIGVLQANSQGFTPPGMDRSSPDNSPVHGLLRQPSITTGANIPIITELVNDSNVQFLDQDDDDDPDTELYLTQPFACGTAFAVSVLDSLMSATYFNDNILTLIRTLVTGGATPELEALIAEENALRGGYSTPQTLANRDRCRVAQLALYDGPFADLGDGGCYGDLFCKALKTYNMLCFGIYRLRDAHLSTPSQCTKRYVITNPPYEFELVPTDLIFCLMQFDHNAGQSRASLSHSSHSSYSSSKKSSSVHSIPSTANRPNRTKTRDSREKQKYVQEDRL
# T2 sequence (Q8AYS8 with tags, fused parts or gaps isoform Q8AYS8-3 DEL657-715): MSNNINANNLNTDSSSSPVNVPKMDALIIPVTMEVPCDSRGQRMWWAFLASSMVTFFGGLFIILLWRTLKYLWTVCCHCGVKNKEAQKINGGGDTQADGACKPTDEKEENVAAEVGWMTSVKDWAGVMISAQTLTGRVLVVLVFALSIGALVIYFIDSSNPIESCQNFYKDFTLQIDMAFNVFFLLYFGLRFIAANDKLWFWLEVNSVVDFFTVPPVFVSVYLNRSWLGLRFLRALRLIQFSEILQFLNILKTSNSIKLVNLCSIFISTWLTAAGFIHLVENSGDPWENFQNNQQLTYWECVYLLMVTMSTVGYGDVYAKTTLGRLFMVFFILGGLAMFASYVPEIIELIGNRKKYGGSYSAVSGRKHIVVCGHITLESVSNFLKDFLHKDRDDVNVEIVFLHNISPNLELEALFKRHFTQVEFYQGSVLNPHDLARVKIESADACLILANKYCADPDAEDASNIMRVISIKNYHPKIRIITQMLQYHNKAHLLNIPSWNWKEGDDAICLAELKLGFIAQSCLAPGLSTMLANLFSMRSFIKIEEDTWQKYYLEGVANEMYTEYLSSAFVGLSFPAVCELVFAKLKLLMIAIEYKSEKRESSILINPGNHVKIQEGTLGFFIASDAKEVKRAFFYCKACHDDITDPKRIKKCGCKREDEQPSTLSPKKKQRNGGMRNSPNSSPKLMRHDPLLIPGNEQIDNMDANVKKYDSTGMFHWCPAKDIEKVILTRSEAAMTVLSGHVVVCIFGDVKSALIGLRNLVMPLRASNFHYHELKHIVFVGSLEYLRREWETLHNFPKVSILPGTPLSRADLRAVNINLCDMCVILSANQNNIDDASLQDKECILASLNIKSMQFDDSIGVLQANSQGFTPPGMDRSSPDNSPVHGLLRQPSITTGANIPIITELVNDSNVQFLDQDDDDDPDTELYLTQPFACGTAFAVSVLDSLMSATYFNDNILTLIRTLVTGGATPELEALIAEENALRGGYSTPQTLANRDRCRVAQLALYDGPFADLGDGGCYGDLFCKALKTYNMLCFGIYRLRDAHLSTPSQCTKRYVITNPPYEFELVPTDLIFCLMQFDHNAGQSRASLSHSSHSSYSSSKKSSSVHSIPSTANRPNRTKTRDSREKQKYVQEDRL
Substance,inhibition of wild-type SA channel [1],inhibition of STREX-deletion-mutant (STREX-deletion-mutant),inhibiting activity [1],level of inhibiting activity compared with GsMTx-4 [1],inhibition (channel's open probability Po vs control) ([1]; after 8 minutes),also measured
GsMTx-4 (GCLEFWWKCNPNDDKCCRPKLKCSKLFKLCNFSSG; disulfide (positions not given here); ends not checked; listed as Grammostola spatulata) [reference compound],inhibit the wild-type SA channel,do not inhibit the STREX-deletion-mutant hardly at all,–,–,–,–
TVP017: mutation in which the 3rd R from the N-terminus of TVP004 had been substituted by A (CAAPKLKC),–,–,found to show inhibiting activity,higher level than,–,inhibition (channel's open probability Po vs control) ([1]; after 6 minutes): 100%; level of inhibition compared with TVP003 ([1]; time taken for inhibition): even higher level of inhibition than TVP003
TVP005: designed peptide from GsMTx-4 comprising loops 2 and 3 (WKCNPNDDKAARPKLKC),–,–,displayed inhibiting activity,–,–,inhibition (channel's open probability Po vs control) ([1]; after 20 minutes): about 60%
TVP004: designed peptide from GsMTx-4 comprising loop 3 (CARPKLKC),–,–,displayed inhibiting activity,–,about 60%,"inhibition (channel's open probability Po vs control) ([1]; 10 μM, after 16 minutes): 95%"
TVP019: mutation in which the 7th K from the N-terminus of TVP004 had been substituted by A (CARPKLAC),–,–,found to show inhibiting activity,–,–,inhibition (channel's open probability Po vs control) ([1]; after 14 minutes): approximately 80%
WKCNPNDDKC [TVP003],inhibit the wild-type SA channel,do not inhibit the STREX-deletion-mutant hardly at all,displayed inhibiting activity,the same as or higher than,100%,dissociation constant ([1]; estimated from inhibition ratio): μM order or lower
